{"source": "patent US20230227514A1", "about": "“BETA-ARRESTIN COMPOSITIONS AND ASSOCIATED METHODS” (Duke University, priority 2020, published 2023)", "key": {"V2R": {"target": "T1, V2R (Homo sapiens, UniProt P30518)", "T1 construct": "HA (N); expressed in transfected cells", "test": "BRET assay of βarrestin2 construct recruitment to V2R", "type": "cell-based", "details": "vasopressin stimulation, 15 min", "description": "Changes following agonist treatment are expressed as a percentage of the BRET signal observed in unstimulated cells (top panel). The histogram (bottom panel) represents Bmax values of agonist-induced BRET as means±SEM of 3 independent experiments performed in duplicates. Lack of significance (“ns”) of changes in energy transfer was evaluated using unpaired t-test.\nBRET assays. […] Titration assays were first completed, which allowed determination of the specificity of association among different interaction partners. See Nagi and Shenoy. 2019, supra; Gales et al. 2005. Nature methods 2:177-184; Nagi et al. 2015. Cellular and molecular life sciences: CMLS 72:3543-3557; Audet and Pineyro. 2011. Methods in molecular biology 756:149-163; and Rebois et al. 2006. Journal of cell science 119:2807-2818. […] BRET readings were acquired using Synergy Neo2 plate reader and obtained 5 min after manual addition of Rluc substrate, coelenterazine h (Promega) to a final concentration of 5 μM.\nThe BRET signal generated was determined by calculating the ratio of light emitted by YFP (520-550 nm) over the light emitted by Rluc (440-480 nm). These values were then corrected by subtracting the background signal (detected when the Rluc-tagged construct was expressed without acceptor) from the BRET signal detected in cells co-expressing both donor and acceptor constructs. […]"}, "RanGAP1": {"target": "T2, RanGAP1 (Homo sapiens, UniProt P46060)", "T2 construct": "endogenous in cells; host or cells: HEK-293T / HEK-293", "T2 sequence (P46060 2-587 limits assumed)": "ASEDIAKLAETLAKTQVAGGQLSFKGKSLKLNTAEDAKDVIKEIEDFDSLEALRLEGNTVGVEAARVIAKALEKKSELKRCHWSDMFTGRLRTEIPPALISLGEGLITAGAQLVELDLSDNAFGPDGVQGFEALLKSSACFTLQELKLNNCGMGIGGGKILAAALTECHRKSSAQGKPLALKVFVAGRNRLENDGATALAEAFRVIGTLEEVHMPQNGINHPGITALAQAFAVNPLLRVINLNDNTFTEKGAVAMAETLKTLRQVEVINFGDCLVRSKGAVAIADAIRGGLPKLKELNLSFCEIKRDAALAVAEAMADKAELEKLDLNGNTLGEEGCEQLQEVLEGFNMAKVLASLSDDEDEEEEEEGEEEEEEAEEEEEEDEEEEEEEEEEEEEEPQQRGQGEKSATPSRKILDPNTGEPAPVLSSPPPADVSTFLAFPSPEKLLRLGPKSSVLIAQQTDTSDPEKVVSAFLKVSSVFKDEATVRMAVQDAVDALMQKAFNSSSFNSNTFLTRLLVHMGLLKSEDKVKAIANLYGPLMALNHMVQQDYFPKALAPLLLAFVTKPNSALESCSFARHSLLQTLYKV", "T2 sequence (P63165 2-97 partner limits assumed)": "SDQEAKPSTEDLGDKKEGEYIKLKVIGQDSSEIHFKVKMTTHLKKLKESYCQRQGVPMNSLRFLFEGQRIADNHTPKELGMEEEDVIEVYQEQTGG", "test": "Co-immunoprecipitation of YFP-βarrestin2 constructs with endogenous RanGAP1", "type": "binding", "details": "IP of YFP proteins, probed for RanGAP1", "description": "HEK-293T cells were transiently transfected with indicated plasmids and subjected to coimmunoprecipitation with GFP IgG (3E6, Thermo Fisher) to immunoprecipitate YFP-βarrestin2 or YFP-βarrestin2-SUMO1 (“IP: YFP”). IPs were probed for endogenous RanGAP1, and for βarrestins. Cell lysates were also blotted to determine total cell protein levels (“Lysates”). Blots shown are from one of three independent experiments."}, "β2AR": {"target": "T3, β2AR (Homo sapiens, UniProt P07550)", "T3 construct": "Flag (N); expressed in transfected cells", "test": "Chemical cross-linking and co-immunoprecipitation of βarrestin2 constructs with Flag-β2AR", "type": "binding", "details": "HEK-293 cells stably expressing FLAG-β2AR; 5 minutes of 1 μM isoproterenol; DSP cross-linking, co-IP, Western blot", "description": "Cross-linking, Immunoprecipitation and Immunoblotting. […] Twenty-four hours post-transfection, cells were starved in PBS containing 10 mM HEPES (pH 7.4) for 1 h and stimulated with vehicle or agonist (isoproterenol, 1 μM; or AVP 1 μM, or Dopamine 1 μM) at 37° C. for desired times. After stimulations, β2AR stable cells were treated with the crosslinker DSP to a final concentration of […], and plates were rocked for 20 min at room temperature. Reaction was quenched by adding 25 μl of 1M Tris-Cl pH 8.5 per 1 mL volume of buffer in the dish and rocked for additional 5 min at room temperature.\nHarvested cells were washed with ice-cold PBS (pH 7.4) and solubilized in an ice-cold lysis buffer (50 mM HEPES (pH 7.5), 2 mM EDTA, 250 mM NaCl, 10% (v/v) glycerol, and 0.5% (v/v) IGEPAL CA-630) that was supplemented with phosphatase and protease inhibitors (1 mM sodium orthovanadate, 1 mM sodium fluoride, 1 mM phenylmethylsulfonyl fluoride, 5 μg/ml leupeptin, 5 μg/ml aprotinin, 1 μg/ml pepstatin A, and 100 μM benzamidine). […] Cell lysate protein concentrations were determined by Bradford protein assay and equivalent μg of proteins were immunoprecipitated using anti-FLAG M2 antibody resin (for FIG. 2) or Anti-HA magnetic beads from Thermo Pierce (for FIG. 5, FIG. 7, and FIG. 8). […] HA-D2R or HA-V2R were detected using an anti-HA IgG (Cell Signaling Technologies). […]"}}}
{"substance": "βarrestin2-SUMO1: rat βarrestin2 polypeptide fused to human SUMO1 (SEQ ID NO:1); used YFP- or Flag-tagged", "values": [{"measurement": "magnitude of interaction with activated V2R defined by BRET, versus βarrestin2", "setting": "V2R", "result": "No significant differences"}, {"measurement": "association with endogenous RanGAP1 forms by co-immunoprecipitation", "setting": "RanGAP1", "result": "associated only with SUMO-RanGAP1"}, {"measurement": "binding to activated β2AR relative to WT βarrestin2", "setting": "β2AR", "result": "2-3 fold"}]}
